Test results reported in patent publication US10088479B2, “Biomarker and uses thereof” (ISIS INNOVATION LIMITED, priority 2014, dated 2018).

How the values were obtained:
[1] = system: primary human macrophages; assay: Cytokine synthesis (ELISA) in primary human macrophages stimulated with tenascin-C or its domains; type: cell-based; conditions: 24 h
Experimental: Human monocytes were isolated from peripheral blood (London Blood Bank) and macrophages were derived from monocytes after differentiation for 4 days with 100 ng/ml of M-CSF as previously described (Foxwell (1998)).
(§1) Immediately after isolation, RA membrane cells and macrophages were cultured at 1×10^5 cells/well in RPMI 1640 containing 10% (v/v) FBS and 100 U/ml (Units/ml) penicillin/streptomycin in 96-well tissue culture plates for 24 hours before stimulation. Synovial fibroblasts (used only at either passage number 2 or 3) were cultured at 1×10^4 cells/well in DMEM containing 10% (v/v) FBS and 100 U/ml penicillin/streptomycin in 96-well tissue culture plates for 24 hours before stimulation.
Cells were incubated for 24 hours at 37° C. with the indicated doses of tenascin-C and recombinant tenascin-C fragments (1.0 μM-1.0 nM). […]
(§2) Supernatants were subsequently examined for the presence of the cytokines TNF-α, IL-6, and IL-8 by enzyme-linked immunosorbent assay (ELISA) according to the manufacturer's instructions. Absorbance was read on a spectrophotometric ELISA plate reader (Labsystems Multiscan Biochromic, Vantaa, Finland) and analyzed using the Ascent software program (Thermo Labsystems, Altrincham, UK).

serum from RA patients = assay: Western blot of citrullinated tenascin-C probed with serum from RA patients or healthy controls; type: binding, human; conditions: sera from RA patients or normal healthy controls
Experimental: 33.33 ul of citrullination reaction (cit-TNC alone or cit-TNC combined with cit-FBG) was loaded into NuPAGE® Novex 4-12% Bis-tris gel using a 1.0 mm 2D single lane well.
After electrophoresis proteins were transferred to nitrocellulose and the membrane blocked and then cut into strips (up to 8 strips ˜0.7 cm wide). Strips were incubated with serum from RA patients or normal healthy individuals diluted 1:100 in 5% milk TBS-tween. Strips were incubated in 15 ml falcon tubes on rollers 1 h room temperature, then washed 3×5 min, 1×15 min in tubes with TBS-Tween. Strips were then incubated with secondary mouse anti-human Ig 1:5000 1 h in room temperature, then washed 3×5 min, 1×15 min in the dish with TBS-tween. Strips were finally incubated with ECL reagents and exposed to film.

RA synovial fibroblasts = assay: Cytokine synthesis (ELISA) in RA synovial fibroblasts stimulated with tenascin-C, FBG or LPS; type: cell-based, human; conditions: 24 h; for cytokine synthesis (IL-6, IL-8) in synovial fibroblasts: LPS 10 ng/ml
Excerpt: (§3) RA membrane cells (representing a mixed population of all synovial cell types) were to isolated from synovial membranes obtained from patients undergoing joint replacement surgery as previously described (Brennan (1989)). RA synovial fibroblasts were isolated from the mixed population of RA membrane cells as previously described (Brennan (1989)). The study was approved by the local Trust ethics committee (Riverside NHS Research Committee), and waste tissue (synovium after joint replacement surgery) was obtained only after receiving signed informed consent from the patient and anonymyzing the tissue to protect patient identity.
as §1
(§4) Cells were incubated for 24 hours at 37° C. with the indicated doses of tenascin-C and recombinant tenascin-C fragments (1.0 μM-1.0 nM). Cells were also stimulated where indicated with LPS (1 ng/ml for human macrophages, 10 ng/ml for human fibroblasts, RA membrane cells and HEKs, 100 ng/ml for MEFS and BMDMs and 10 ng/ml for HEKS), PAM3 (10 ng/ml for human macrophages, human fibroblasts, and HEKs, 100 ng/ml for MEFs and BMDMs), murine IL-1 (5 ng/ml for MEFS) and murine TNF-α (100 ng/ml for MEFS). Unless specifically stated otherwise rough LPS was used for in vitro studies.
as §2

[2] = system: synovial membranes from RA patients; assay: Cytokine synthesis in RA synovial membrane cells stimulated with FBG; type: cell-based, human; conditions: FBG 1.0-0.01 μM, 24 h
Excerpt: as §3
Immediately after isolation, RA membrane cells and macrophages were cultured at 1×10^5 cells/well in RPMI 1640 containing 10% (v/v) FBS and 100 U/ml (Units/ml) penicillin/streptomycin in 96-well tissue culture plates for 24 hours before stimulation. […]
as §2

[3] = system: human dermal fibroblasts (HDF); assay: Cell adhesion to coated FBG, crystal violet; type: cell-based; conditions: coated wells, 45 minutes
Experimental: (§5) (A) The sequence identified to bind integrin αvβ3 is shown in white (Yokoyama et al., 2000). Within this sequence two Arginines (shown in black) were identified to be citrullinated. (B) Wells of a 96 well plate were coated with different concentrations of FBG, citrullinated FBG (cFBG), FBG incubated in buffer without Calcium (FBG —Ca^2+), or FBG incubated without PAD (FBG —PAD). As a positive control wells were coated with Fibronectin (FN) (1 ug/ml), and coating with BSA (10 mg/ml) served as negative control. Plates were incubated with human dermal fibroblasts (HDF) or synovial fibroblasts from RA patients (RAF) for 45 minutes and adhesion was measured by determining absorbance of attached cells after staining with crystal violet (0.1%). Data are shown as the mean of at least four independent experiments+s.e.m., *=p<0.05, **=p<0.01.

knee joint = assay: Intra-articular injection of FBG into mouse knee joint, histology; type: in vivo, mice; conditions: for joint inflammation, histology: wild type mice
Experimental: Wild type mice were anesthetized by intraperitoneal injection of 150 μl of Hypnorm diluted 1:10 in sterile water and then injected with 100 ng, 1 or 3 μg FBG in 10 μl of sterile PBS into the right knee joint using a sterile 33-gauge microcannula. Control mice received an injection of 10 μl PBS alone or were not injected.
On days 3 and 7, mice were euthanized, the knee joints were excised and fixed in 10% (volume/volume) buffered formalin, decalcified, with 10% EDTA and processed to paraffin.
Coronal tissue sections (4 μm) were cut at 7 depths throughout the joint; 80 μm apart and stained with hematoxylin and eosin or Safranin-O to assess joint pathology. Histopathologic changes were scored using the following parameters as described in Van Lent (2006).
Inflammation (the influx of inflammatory cells into synovium (infiltrate) and the joint cavity (exudates), was graded using an arbitrary scale from 0 (no inflammation) to 3 (severe inflammation). Chondrocyte death was determined as the percentage of cartilage area containing empty lacunae in relation to the total area. Cartilage surface erosion was determined as the amount of cartilage lost in relation to the total cartilage area. Bone destruction was determined in 10 different areas of the total knee joint section. Destruction was graded on a scale of 0 (no damage) to 3 (complete loss of bone structure). Histological analysis was performed by an investigator who was blinded to the experimental groups. The mean score for each animal in an experimental group was calculated by averaging the histopathologic scores in at least 5 section depths per joint.

[4] = system: synovial fibroblasts from RA joints (RAF); assay: Cell adhesion to coated FBG, crystal violet; type: cell-based, human; conditions: coated wells, 45 minutes
Experimental: as §5

[5] = system: embryonic fibroblasts or macrophages; assay: Cytokine synthesis in embryonic fibroblasts or macrophages from MyD88, TLR2 or TLR4 deficient mice; type: cell-based; conditions: FBG 1 μM, 24 h
Experimental: MEFs express high levels of mRNA of all 9 murine TLRs and are specifically and highly responsive to TLR ligand activation. […] MEFs were isolated from d13 embryos harvested from age-matched, pregnant female wild type, TLR2, TLR4 and null mice (as described in Todaro (1963)). Fibroblasts were cultured at 2×10^4 cells/well in DMEM containing 10% (v/v) FBS and 100 U/ml penicillin/streptomycin in 96-well tissue culture plates for 24 hours before stimulation.
BMDMs were derived by aspirating the femurs of age matched female wild type, TLR2 and TLR4 null mice as described in Butler (1999)) and culturing the cells for 7 days in DMEM, 20% (v/v) FBS, 10 ml/L (v/v) antibiotic-antimycotic solution PSA, 50 μM β-Mercaptoethanol and 10 ng/ml M-CSF. Macrophages were then cultured at 1×10^5 cells/well in DMEM, 20% (v/v) FBS, 10 ml/L (v/v) antibiotic-antimycotic solution PSA, 50 μM β-Mercaptoethanol in 96-well tissue culture plates for 24 hours before stimulation.
as §4, §2

“tenascin-C: purified recombinant full-length human tenascin-C, native (non-citrullinated)” was tested, and the “production of TNF-α, IL-6 and IL-8” value ([1]; human macrophages) was “dose dependently stimulated”, the “reactivity with sera in blots” value (serum from RA patients) was “No reactivity” and the “TNF-α synthesis in fibroblasts” value (RA synovial fibroblasts) was “Neither LPS nor tenascin-C induced TNF-α synthesis”. The “cytokine synthesis (IL-6, IL-8) in synovial fibroblasts” value (RA synovial fibroblasts) was “only induced IL-6 synthesis”.

B1: FBG: recombinant fibrinogen-like globe domain of human tenascin-C (protein)
chain: GLLYPFPKDCSQAMLNGDTTSGLYTIYLNGDKAEALEVFCDMTSDGGGWIVFLRRKNGRENFYQNWKAYAAGFGDRREEFWLGLDNLNKITAQGQYELRVDLRDHGETAFAVYDKFSVGDAKTRYKLKVEGYSGTAGDSMAYHNGRSFSTFDKDTDSAITNCALSYKGAFWYRNCHRVNLMGRYGDNNHSQGVNWFHWKGHEHSIQFAEMKLRPSNFRNLEGRRKRA
modifications: left off: small tags and cut ends
notes: recombinant fibrinogen-like globe domain of human tenascin-C
With B1 the “synthesis of IL-6, IL-8 and TNF-α in RA synovial membranes” value [2] was “further enhanced synthesis of all these cytokines”, the “adhesion of HDF” value [3] was “proadhesive” and the “TNF-α synthesis in human macrophages” value ([1]; 1.0 μM tenascin-C domains) was “stimulated”. For the same molecule, the joint inflammation (knee joint; TLR2 null mice, 1 μg FBG intra-articular, 3 days) was “able to induce joint inflammation”, the “joint inflammation, histology” value (knee joint; 100 ng FBG intra-articular) was “No inflammation or proteoglycan loss” and the “joint inflammation, histology” value (knee joint; 1 μg FBG intra-articular, 3 days) was “inflammatory cell infiltration (FIG. 6f), mild synovitis, pannus formation (FIG. 6g) and proteoglycan loss (FIG. 6h)”. For the same molecule, the “joint inflammation, histology” value (knee joint; 3 μg FBG intra-articular) was “A similar response”, the “adhesion of RAF” value [4] was “proadhesive” and the “cytokine synthesis in MyD88 deficient embryonic fibroblasts” value ([5]; MyD88 -/-) was “does not stimulate cytokine synthesis”. The “cytokine synthesis in TLR2 deficient embryonic fibroblasts or macrophages” value ([5]; TLR2 -/-) was “unaffected”, the “cytokine synthesis in TLR4 deficient embryonic fibroblasts or macrophages” value ([5]; TLR4 -/-) was “does not stimulate cytokine synthesis” and the “cytokine synthesis (IL-6, IL-8) in synovial fibroblasts” value (RA synovial fibroblasts) was “did not induce IL-8 synthesis”.
